Measurements: the nanobody polyreactivity screen of Harvey et al. (2022)

Assay: yeast display, Sf9 membrane polyspecificity reagent, FACS + sequencing; frameworks hold sequencing errors
How it was run: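 A synthetic nanobody library was expressed on Saccharomyces cerevisiae BJ5465 by galactose induction for 36–48 hours. The library was stained for 1 hour at 4 °C with 10% biotinylated, detergent-solubilized Sf9 membrane reagent and enriched with streptavidin microbeads before FACS. Low and high (top ~1%) gates were set on anti-HA fluorescence for expression and streptavidin fluorescence for reagent binding, and each polyreactivity label reflects the gate of origin.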

Sequence | polyreactivity (PSR sort gate)
QVQLVESGGGLVQAGGSLRLSCAASGLIFYLYTMGWYRQAPGQERELVAAISRSGGSTYYADSVKGRFTISRDNAKNTVYVQMNSLKPEDPAVYYCAALRSRSTYNDYNYWGQGTQVTVSS | high polyreactivity
QVQLVESGGGLVQAGGSLRLSCAASGLIFYRNAMGWYRQAPGKERELVAAIRFSTGSTYYADSVKGRFTISRDNAKNTVYLQMNSLKPEDTAVYYCAADRRYYWYNYWGQGTQVNVSS | high polyreactivity
QVQLVESGGGLVQAGGSLRLSCAASGLIFYRNAMGWYRQAPGKERELVAAISVSGGRTYYADSVKGRFTISRDNAKNTVYLQMNSLKPEDTAVYYCAAYGTTRMDYWGQGTQVTVSS | high polyreactivity
QVQLVESGGGLVQAGGSLRLSCAASGLIFYRYAMGWYRQAPGKERELVAAISARGSSTYYADSVKGRFTISRDNAKNTVYLQMNSLKPEDTAVYYCAAGATGTSYYGGDYWGQGTQVTVSS | high polyreactivity
QVQLVESGGGLVQAGGSLRLSCAASGLIFYRYTMGWYRQAPGKERELVAAITSTGTSTYYADSVKGRFTISRDNAKNTVYLQMNSLKPEDTAVYYCAARYIARGKWDYDYWGQGTQVTVSS | high polyreactivity
QVQLVESGGGLVQAGGSLRLSCAASGLIFYRYVMGWYRQAPGKEREFVAAISSGGSTYYADSVKGLFTISRDNAKNTVYLQMNSLKPEDTAVYYCNTLSQVFASRAPKFDYWGQGTQVTVSS | high polyreactivity
QVQLVESGGGLVQAGGSLRLSCAASGLIFYVYAMGWYRQAPGKERELVATISSSGGSTYYADSVKGRFTISRDNAKNTVYLQMNSLKPEDTAVYYCAARWSHYRTGWGDTSYHYYYWGQGTQVTVSS | high polyreactivity
QVQLVESGGGLVQAGGSLRLSCAASGLIFYYYAMGWYRQAPGKERELVAAITAIGDRTYYADSVKGRFTISRDNAKNTVYLQMNSLKPEDTAVYYCAAGWLLYNRYGIITYDYWGQGTQVTVSS | high polyreactivity
QVQLVESGGGLVQAGGSLRLSCAASGLIFYYYAMGWYRQAPGKERELVAAITTGGGTYYADSVKGRFTISRDNAKNTVYLQMNSLKPEDTAVYYCAVYYRSYWGYEYWGQGTQVTVSS | high polyreactivity
QVQLVESGGGLVQAGGSLRLSCAASGLIIDGYAMGWSRQAPGKERELVATITVSGTSTYYADSVKGRFTISRDNAKNTVYLQMNSLKPEDTAVYYFATDRNYGYYFVEYDHDYWGQGTQVTVSS | low polyreactivity
QVQLVESGGGLVQAGGSLRLSCAASGLIIRYYAMGWYRQAPGKERELVAAISYNGGSTYYADSVKGRFTISRDNAKNTVYLQMNSLKPEDTAVYYCAARGRYRIGPGRYGKRYDYWGQGTQVTVSS | high polyreactivity
QVQLVESGGGLVQAGGSLRLSCAASGLILDGYAMGWYRQAPGKERELVAAITRSGGRTYYADSVKGRFTISRDNAKNTVYLQMKSLKPEDPAVYYCAALGWSGRYRYDYWGQGTQVTVSS | high polyreactivity
QVQLVESGGGLVQAGGSLRLSCAASGLILGVYTMGWYRQAPGKEREFVASINYGGGSTYYADSVKGRFTISRDNAKNTVYLQMNSLKPEDTAVYYCNARSRWGGTRLYSYDYWGQGTQVTVSS | low polyreactivity
QVQLVESGGGLVQAGGSLRLSCAASGLILGYYAMGWYRQAPGKERELVAAISSTGSTNYADSVKGRFTISRDNAKNTVYLQMNSLKPEDTAVYYCAAVPPRKDYQHMDYWGQGTQVTVSS | low polyreactivity
QVQLVESGGGLVQAGGSLRLSCAASGLILPYYAMGWYSQARGKERELVAAISRTGGRTSYADSVKVRFTISRDNAKNTVYLLINSLKPEDTAVYYCAAVGQSGGRRYDYWGQGTQVTVSS | high polyreactivity
QVQLVESGGGLVQAGGSLRLSCAASGLILPYYTMGWYRQAPGTERELVAAITWGGDSTYYADSVKGRFTISRDNAKNTVYLQMNRLKPEDTAVFYCAAYPQRRFYWQYRYDYWGQGTQVTGSS | high polyreactivity
QVQLVESGGGLVQAGGSLRLSCAASGLILQYYVMGWYRQAPGKERELVAAITRSGGGTYYADSVKGRFTISRDKAKNTVYLQMNSLIPEDTAVYYCAAQRQYGKFDYWGQGTQVTVSS | high polyreactivity
QVQLVESGGGLVQAGGSLRLSCAASGLILSAYAMGWYRQAPGKERELVAAISGSGGRTYYADSVKGRFTISRDNAKNTVYLQMNSLKPEDTAVYYCAAPYTYVGSYTYNYWGQGTQVTVSS | high polyreactivity
QVQLVESGGGLVQAGGSLRLSCAASGLILSDYAMGWYRQAPGKERELVATITSVGTTKYADSVKGRFTISRDNAKNTVYLQMNSLKPEDTAVYYCAVEWYQGTTYSISYLYDYWGQGTQVTVSS | low polyreactivity
QVQLVESGGGLVQAGGSLRLSCAASGLILVPNTMGWYRQAPGKERELVAAISYSGGGTYYADSVKGRFTISRDNAKNTVYLQMNSLKAEDTAVYYCAAYVKRESAPYGYWGHGTQVTVSS | low polyreactivity
QVQLVESGGGLVQAGGSLRLSCAASGLILYYYAMGWYRQAPGKEREFVAAISGRGGSTYYADSVKGRFTISRDNAKNTVYLQMNSLKPEDTAVYYCAARVWYKYDHWGQGTQVTVSS | high polyreactivity

Sequence | polyreactivity (PSR sort gate)
QVQLVESGGGLVQAGGSLRLSCAASGLILYYYDMGWYRQAPGKERELVAAISWNGDDTYYADSVKGRFTISRDNAKNTVYLQMNSLKPEDTAVYYCAAEGPPQTDDYWGQGTQVTVSS | high polyreactivity
QVQLVESGGGLVQAGGSLRLSCAASGLISYAYAMGWYRQAPGKERELVAAIRSSGSTYYADSVKGRFTISRDNAKNTVYLQMNSLKPEDTAVYYCAAYVWRRGDGYYYWGQGTQVTVSS | high polyreactivity
QVQLVESGGGLVQAGGSLRLSCAASGLISYHYAMGWYRQAPGKERELVASISYTGGSTFYADSVKGRFTISRDNAKNTVYLQMNSLKPEDTAVYYCAAYRIWRPSYYYWGQGTQVTVSS | high polyreactivity
QVQLVESGGGLVQAGGSLRLSCAASGLISYRNAMGWYRQAPGKERELVAAISSDGSTYYADSVKGRFTISRDNAKNTVYLQMNSLKPVDTAVYYCAADYREFDAYGAARTLDFDYWGQGTQVTVSS | low polyreactivity
QVQLVESGGGLVQAGGSLRLSCAASGLIYVGNAMGWYRQAPGKERELVAAISSRGGRTYYADSVKGRFTISRDNAKNSVYLQMNSLKPEDSAVYYCNAANSQWGFEYWGQGTQVTVSS | high polyreactivity
QVQLVESGGGLVQAGGSLRLSCAASGLMLGYYAMGWYRQAPGKERELGATIRRGASTYYADSVKGRLTISRDNAKNTVYLQMNSLKPEDTALYYCAAYGHQFQGDYNYWGPGTQVTVSS | low polyreactivity
QVQLVESGGGLVQAGGSLRLSCAASGLNFRAYAMGWYRQAPGKERELVAAITWNGGSTNYADSVKGRFTISRDNAKNTVYLQMNSLKPEDTAVYYCNKYRISGLSKFYYWGQGTQVTVSS | high polyreactivity
QVQLVESGGGLVQAGGSLRLSCAASGLPSKLMHMGWYRQAPGKERELVAAISSSGGRTYYADSVKGRITISRDNAKNTVYLQMNILKPEDTAVYYCAATARYRSYSASYYWGQGTQVTVSS | high polyreactivity
QVQLVESGGGLVQAGGSLRLSCAASGLSFGIYAIGWYRKAPGKERELVAAISRSGGSTYYADSVKGRFTISRDNAKNTVYLQMNSLKPEDTAVYYCAAPYYVGYDYWGQGTQVTVSS | high polyreactivity
QVQLVESGGGLVQAGGSLRLSCAASGLSFRRYAMGWYRQAPGKEREFVATISRRGGSTRYADSVKGRFTISRDNAKNTVYLQMKSLKPEDTAVYYCNKVEYASIAKGYDYWGQGTQVTVSS | high polyreactivity
QVQLVESGGGLVQAGGSLRLSCAASGLSSLRMLWDGIDRRLGKKGSWLPLITSGGDSTNYADSVKGRFTISRDNAKNTVYLQMNSLKPEDTAVYYCAADLDYPYGYWGQGTQVTVSS | low polyreactivity
QVQLVESGGGLVQAGGSLRLSCAASGLTCRYNAMGWYRQAPGKERELVAGIRISGGNTRYADAVKGRCTISRDNAKKSVYLQMNSLKPEDTAVYYCSALTGFYNLRPYGYWGQGTQVTVSS | high polyreactivity
QVQLVESGGGLVQAGGSLRLSCAASGLTFAAYAMGWYRQAPGKEREMVAAISRRGGSTYYADSVKGRFTISRDNAKNTVYLQMNRLKPEDTAVYYCARGGSRLTQGWLVTPYDYDYWGQGTQVNVSS | high polyreactivity
QVQLVESGGGLVQAGGSLRLSCAASGLTFAFYAMGWYRQAPGKERELVAAISGSGGSTNYADSVKGRFTISRDNAKNTVYLQMNSLKPEDTAVYYCAATYTYSWAYGYWGQGTQVTVSS | high polyreactivity
QVQLVESGGGLVQAGGSLRLSCAASGLTFAKYAMGWYRQEPGKEREFVAAITYSGGTTYYADSVKGRFTISRDNAKNTVYLQMNSLKPEDTAVYYCNTRSTLGYYWGQGTQVTVSS | high polyreactivity
QVQLVESGGGLVQAGGSLRLSCAASGLTFARYAMGWSRQAPGKERELVAAISSSGGTKYADSVKGRFTISRDNAKNTVYLQMNSLIPEDTAVYYCNADAVVERSSVWYYWSIYEYWGQGTQVTVSS | low polyreactivity
QVQLVESGGGLVQAGGSLRLSCAASGLTFAVYAMGWYRQAPGKERELVASITRSGGSTYYADSVKGRFTISRDNAKNTVYLQMNSLKPEDTAVYYCAAQTIYSGRYYYYSRYDYWGQGTQVTVSS | high polyreactivity
QVQLVESGGGLVQAGGSLRLSCAASGLTFDHYTMGWYRQATGLERELVAAITKNGGSTYYADSVKGRFTISRDNAKNTVYLQMISLKPEDTAVYYCNVGPRRVDRSRAASSDYDYWGQGTQVTVSS | high polyreactivity
QVQLVESGGGLVQAGGSLRLSCAASGLTFDVYAMGWYRQAPGKERELVAAISSIGGSTYYADSVKGRFTISRDNAKNTVYLQMNSLKPEDTAVYYCNADYFGGGDYWGQGTQVTVSS | low polyreactivity
QVQLVESGGGLVQAGGSLRLSCAASGLTFERYAMGSYIQAPGKERELVAAISGSGGSTYYADSVKGRFTISRDNAKNTVYLQMNSLKPEDTAVYYCAAYPTVWYDYWGQGTQVTVSS | high polyreactivity
